Test results reported in doi:10.1101/2025.04.27.650876, “Embryonic stem cell factors DPPA2/4 facilitate a unique chromatin state in non-small cell lung cancer” (bioRxiv, 2025).

Target: T1, Developmental Pluripotency Associated 2 (DPPA2), endogenous (human (endogenous in NCI-H661), UniProt Q7Z7J5 1-298)
T1 construct: DPPA2, human, endogenous in NCI-H661 non-small cell lung cancer cells; source: endogenous, NCI-H661 whole cell lysate
T1 sequence (looked up): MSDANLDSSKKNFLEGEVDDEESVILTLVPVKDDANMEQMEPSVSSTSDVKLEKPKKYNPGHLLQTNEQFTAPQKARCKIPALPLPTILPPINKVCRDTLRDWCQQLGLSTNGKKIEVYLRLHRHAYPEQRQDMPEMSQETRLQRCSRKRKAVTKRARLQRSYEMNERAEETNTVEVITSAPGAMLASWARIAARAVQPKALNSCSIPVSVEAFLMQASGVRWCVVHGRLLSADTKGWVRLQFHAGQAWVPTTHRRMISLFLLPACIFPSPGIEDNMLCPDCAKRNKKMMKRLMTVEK
Assay: affinity purification with mass spectrometry; endogenous DPPA2 or DPPA4 immunoprecipitated from NCI-H661 whole cell lysates (n=4 per condition); enrichment against species matched IgG IP by label-free quantitation; relative iBAQ for stoichiometry
Details: partners not purified

ratio between DPPA2 and DPPA4 (relative iBAQ) in the DPPA2-IP: > 1
B1: Developmental Pluripotency Associated 4 (DPPA4), endogenous (natural protein, human (endogenous in NCI-H661), UniProt Q7L190 1-304, looked up)
chain: MLRGSASSTSMEKAKGKEWTSTEKSREEDQQASNQPNSIALPGTSAKRTKEKMSIKGSKVLCPKKKAEHTDNPRPQKKIPIPPLPSKLPPVNLIHRDILRAWCQQLKLSSKGQKLDAYKRLCAFAYPNQKDFPSTAKEAKIRKSLQKKLKVEKGETSLQSSETHPPEVALPPVGEPPALENSTALLEGVNTVVVTTSAPEALLASWARISARARTPEAVESPQEASGVRWCVVHGKSLPADTDGWVHLQFHAGQAWVPEKQEGRVSALFLLPASNFPPPHLEDNMLCPKCVHRNKVLIKSLQWE
notes: DPPA4, human, endogenous in NCI-H661 non-small cell lung cancer cells; source: endogenous, NCI-H661 whole cell lysate
